Source: US11628159B2, “Cell-protective compounds and their use” (ETH ZURICH, priority 2017, dated 2023)

Biological target: T1, GRK2 (Homo sapiens, UniProt P25098)
T1 construct: fused on or other part: hexahistidine tag
T1 sequence (P25098 1-669 limits assumed): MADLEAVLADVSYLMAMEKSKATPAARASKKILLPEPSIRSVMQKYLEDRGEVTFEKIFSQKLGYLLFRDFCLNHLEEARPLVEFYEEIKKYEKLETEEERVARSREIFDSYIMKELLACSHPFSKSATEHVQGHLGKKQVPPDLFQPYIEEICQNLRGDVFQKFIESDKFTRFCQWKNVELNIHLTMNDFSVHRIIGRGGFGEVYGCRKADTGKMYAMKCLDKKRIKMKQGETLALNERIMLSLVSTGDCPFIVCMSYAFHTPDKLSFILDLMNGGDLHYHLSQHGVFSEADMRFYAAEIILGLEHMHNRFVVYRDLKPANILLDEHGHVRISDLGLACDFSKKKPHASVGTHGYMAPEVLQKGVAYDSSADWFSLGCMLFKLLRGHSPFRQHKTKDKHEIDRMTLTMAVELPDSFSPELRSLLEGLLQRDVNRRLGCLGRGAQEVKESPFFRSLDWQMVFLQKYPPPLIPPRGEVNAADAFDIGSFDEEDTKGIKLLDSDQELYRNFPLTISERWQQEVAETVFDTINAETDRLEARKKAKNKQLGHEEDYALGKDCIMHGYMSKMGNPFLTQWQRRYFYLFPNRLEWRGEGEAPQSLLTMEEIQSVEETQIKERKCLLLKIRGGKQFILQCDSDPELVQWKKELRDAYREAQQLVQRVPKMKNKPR
Test: In vitro phosphorylation assay: GRK2-mediated phosphorylation of phosducin
Type: biochemical
Conditions: n=6-7; read-out: IC50, inhibition of GRK2-induced phosducin phosphorylation
From the text: Recombinant human GRK2 protein and GRK2-S670A protein was expressed in and purified from Spodoptera frugiperda (Sf9) cells by the baculoviral expression system. The cDNAs encoding hexahistidine-tagged human GRK2 (ADRBK1) GRK2-S670A were subcloned into the pFastBac1 expression plasmid (INVITROGEN™, THERMO FISHER SCIENTIFIC®, Waltham, Mass., USA) using the Sal I/Hind III restriction sites, recombinant baculovirus was generated by the Bac-To-Bac Baculovirus expression system (THERMO FISHER SCIENTIFIC®, Waltham, Mass., USA). Sf9 cells were infected with recombinant baculoviruses at an MOI of 2-3, 48 h after infection cells were harvested by centrifugation, lysed with lysis buffer (300 mM NaCl, 50 mM HEPES, pH 7.5 supplemented with 1% NP40, 1 mM PMSF and protease inhibitor cocktail) and applied to Ni-NTA chromatography. After overnight incubation at 4° C., unbound proteins were removed by washing with lysis buffer (20× column volumes) followed by 1× column volume of 30 mM imidazole-containing lysis buffer. Bound GRK2 was eluted by 300 mM imidazole in lysis buffer, desalted by PD10 column chromatograpy, supplemented with 20% glycerol and stored at −80° C. for further use. […]

IC50: 950 nM
B1: RKIP: raf kinase inhibitor protein, a dual-specific GRK2 and Raf kinase inhibitor (protein, UniProt P30086 2-187, looked up)
Phosphatidylethanolamine-bindi …: PVDLSKWSGPLSLQEVDEQPQHPLHVTYAGAAVDELGKVLTPTQVKNRPTSISWDGLDSGKLYTLVLTDPDAPSRKDPKYREWHHFLVVNMKGNDISSGTVLSDYVGSGPPKGTGLHRYVWLVYEQDRPLKCDEPILSNRSGDHRGKFKVASFRKKYELRAPVAGTCYQAEWDDYVPKLYEQLSGK
